Assay results taken from patent US20130171217A1, “ENZYMATIC PERACID GENERATION FOR USE IN SKIN CARE PRODUCTS” (E I DU PONT DE NEMOURS AND COMPANY, priority 2010, published 2013).

Columns and labels:
[1] = One-step procedure on hair tresses, tress tensile strength; settings: 10 μg/mL HC1121, pH 6.6, 50 mM phosphate, 8 cycles
[2] = Two-step treatment of hair tresses, color loss ΔE; settings: 2500 μg/mL (E/H 10), 20 min/cycle, 1 cycle
[3] = One-step procedure on hair tresses, hair color loss ΔE
Procedure: The hair tresses in these examples were cut from the stock medium brown hair swatches that were custom made by International Hair Importers (Glendale, N.Y.). Each hair tress was glued at one end, and cut at 5 mm width and 4 cm long (excluding the glued portion), with 100+/−20 mg net hair weight. For each test condition, triplicates of hair tresses were used. In the one-step procedure, each hair tress was placed in a clean plastic weighing tray (VWR, Cat. #12577-053), then 1 mL of the perhydrolase HC1121 solution in a buffer was applied to the hair tress, and was rubbed into the hair tress with an applicator. Then calculated amount of triacetin and 30% H2O2 were applied onto each hair tress and rubbed into the hair tress which gave 200 mM triacetin and 100 mM H2O2. The hair tress sat in this reaction mixture for 30 min, before being washed thoroughly with tap water followed by paper towel dry. This completed a 30 min treatment cycle. The treatment cycle was repeated 16 times. Hair tress became lighter-colored and weakened during the treatment. After final rinse and air-drying, tensile strength tests as described in Example 25 were conducted on each hair tress to quantify hair weakening. In addition, L*, a*, b* color measurements were taken for each hair sample to quantify hair color loss, and L*, a*, b* color measurements were also taken for untreated hair as a reference for ΔE color difference calculations. ΔE was calculated in the standard way as ΔE=((L*−L*ref)^2+(a*−a*ref)^2+(b*−b*ref)^2)^0.5. […] At pH 6, when 30 μg/mL HC1121 was used which gave 0.3 μg/mg hair E/H ratio, the tensile strength of treated hair tress reduced to 1.9 N/mg hair, approaching 1.5 N/mg hair, the benchmark strength of hair treated with NAIR® cream for 5 min. At pH 7, when 30 μg/mL HC1121 was used, the tensile strength of treated hair tress was 0.3 N/mg hair, much less than the 1.5 N/mg hair benchmark. Therefore, proper concentration of enzyme at proper pH could weaken hair effectively. The measured hair color loss for treated hair tresses correlated well with the weakening of hair: the greater hair weakening, the greater hair color loss.
Hair tresses were treated using the same procedure as described in Example 40, except that SLES (sodium laurel ether sulfate, a common soap ingredient) wash step was added before tap water rinse step each cycle to imitate daily shower in real life, where 1 mL 1% SLES (“RHODAPEX ES 2K” by Rhodia Inc., Cranbury, N.J.) was transferred onto hair tress and the hair tress was rubbed with gloved hand on the palm for 30 seconds. The treatment parameters for this example (enzyme concentration, pH and buffer concentration, and treatment cycle time) were shown in Table 34. For the 24 hr treatment cycle, the hair tress sat in the mixture for 1 hr before being taken out to a dry dish. The hair tress sat dry for 23 hr before being washed with 1 mL 1% SLES followed by tap water rinse and paper towel dry. For the 30 min treatment cycles, the treatment cycle was repeated 16 times. […] After final rinse and air-drying for each hair tress, tensile strength test and color measurement as described in Example 40 were conducted on each hair tress to quantify hair weakening and hair color loss. […] Hair tensile strength ranged from 0.3 to 0.8 N/mg hair, much less than the 1.5 N/mg hair tensile strength benchmark. Stronger hair weakening occurred at higher buffer concentration and longer treatment time. […] Therefore, it was anticipated that even lower enzyme concentration could be used to reach benchmark hair weakening at slightly higher pH (pH 6.6 compared to pH 6 in Example 40), higher buffer concentration and longer treatment time.
Hair tresses were treated using the same procedure for 24 hr treatment cycles as described in Example 41 using 10 μg/mL HC1121 at pH 6.6 and substrates at various concentrations. […]

[4] = 200 mM TA/200 mM H2O2, 24 hr/cycle

B1: C277S-HC263: C277S variant of Thermotoga maritima perhydrolase fused via a flexible linker to hair-binding domain HC263 (protein)
chain: MAFFDLPLEELKKYRPERYEEKDFDEFWEETLAESEKFPLDPVFERMESHLKTVEAYDVTFSGYRGQRIKGWLLVPKLEEEKLPCVVQYIGYNGGRGFPHDWLFWPSMGYICFVMDTRGQGSGWLKGDTPDYPEGPVDPQYPGFMTRGILDPRTYYYRRVFTDAVRAVEAAASFPQVDQERIVIAGGSQGGGIALAVSALSKKAKALLCDVPFLCHFRRAVQLVDTHPYAEITNFLKTHRDKEEIVFRTLSYFDGVNFAARAKIPALFSVGLMDNISPPSTVFAAYNYYAGPKEIRIYPYNNHEGGGSFQAVEQVKFLKKLFEKGGPGSGGAGSPGSAGGPGSPSAQSQLPDKHSGLHERAPQRYGPEPEPEPEPIPEPPKEAPVVIEKPKPKPKPKPKPPAHDHKNQKETHQRHAAGSGGGGSPHHHHHH
**Q.** What does the source list for B1?
**A.** Strength N/mg Hair, replicate1 [1, 4]: 1.04 N/mg Hair; Strength N/mg Hair, replicate2 [1, 4]: 0.57 N/mg Hair; Strength N/mg Hair, replicate2 ([1]; 500 mM TA/500 mM H2O2, 24 hr/cycle): 0.55 N/mg Hair; ΔE of color loss [2]: 2; Hair color loss avg ΔE ([3]; 10 μg/mL HC1121, pH 6.6, 50 mM phosphate, 200 mM TA/100 mM H2O2, 24 hr/cycle, 8 cycles): 13.8; Hair color loss avg ΔE ([3]; 10 μg/mL HC1121, pH 6.6, 50 mM phosphate, 200 mM TA/200 mM H2O2, 24 hr/cycle, 8 cycles): 16.7; Hair color loss avg ΔE ([3]; 10 μg/mL HC1121, pH 6.6, 50 mM phosphate, 200 mM TA/300 mM H2O2, 24 hr/cycle, 8 cycles): 20.1; Hair color loss avg ΔE ([3]; 10 μg/mL HC1121, pH 6.6, 50 mM phosphate, 200 mM TA/500 mM H2O2, 24 hr/cycle, 8 cycles): 21.8; Hair color loss avg ΔE ([3]; 10 μg/mL HC1121, pH 6.6, 50 mM phosphate, 500 mM TA/500 mM H2O2, 24 hr/cycle, 8 cycles): 22.3; Hair color loss avg ΔE ([3]; one-step, 5 μg/mL enzyme, pH 6, 30 min × 16): 5.2; Hair color loss avg ΔE ([3]; one-step, 15 μg/mL enzyme, pH 6, 30 min × 16): 6.8; Hair color loss avg ΔE ([3]; one-step, 30 μg/mL enzyme, pH 6, 30 min × 16): 8.7; Hair color loss avg ΔE ([3]; one-step, 30 μg/mL enzyme, pH 7, 30 min × 16): 16.6; Hair color loss avg ΔE ([3]; one-step, pH 6.6, 50 mM buffer, 30 min/cycle X 16 cycles, SLES wash each cycle): 17.7; Hair color loss avg ΔE ([3]; one-step, pH 6.6, 50 mM buffer, 24 hr/cycle X 7 cycles, SLES wash each cycle): 15.6; Hair color loss avg ΔE ([3]; one-step, pH 6.6, 100 mM buffer, 30 min/cycle X 16 cycles, SLES wash each cycle): 24.2
